B1: IDT3 anti-NOV1401 Fab (Fab, V domains shown)
VH: QVQLVESGGGLVKPGGSLRLSCAASGFTFQSAAVHWVRQAPGKGLEWVGRIKSKADGGTTDYAAPVKGRFTISRDDSKNTLYLQMNSLKTEDTAVYYCARDSPSISSYSIPYFSGMDVWGQGTLVTVSS
VL: DIQMTQSPSSLSASVGDRVTITCRASQGIRAWLNWYQQKPGKAPKLLIYAASSLQSGVPSRFSGSGSGTDFTLTISSLQPEDFATYYCHQYITHPPTFGQGTKVEIKR
notes: Human Fab; The heavy chain entry is VH-CH1 (Fd); also called antidote
B2: IDT9 anti-NOV1401 Fab (Fab, V domains shown)
VH: QVQLVQSGAEVKKPGASVKVSCKASGYTFTNYYVHWVRQAPGQGLEWMGWINPYNGNTNYAQKFQGRVTMTRDTSISTAYMELSRLRSEDTAVYYCARGASSIRMSYYLDVWGQGTLVTVSS
VL: DIQMTQSPSSLSASVGDRVTITCRASQSISNYLNWYQQKPGKAPKLLIYAASNLQSGVPSRFSGSGSGTDFTLTISSLQPEDFATYYCFQYTHSPATFGQGTKVEIKR
notes: as for B1
B3: IDT7 anti-NOV1401 Fab (Fab, V domains shown)
VH: QVQLVESGGGLVKPGGSLRLSCAASGFTFSSNAMHWVRQAPGKGLEWVGRIKSKTDGGTTDYAAPVKGRFTISRDDSKNTLYLQMNSLKTEDTAVYYCARDHYYYPFAYWGQGTLVTVSS
VL: DIQMTQSPSSLSASVGDRVTITCRASQSIRYNLAWYQQKPGKAPKLLIYAASSLQSGVPSRFSGSGSGTDFTLTISSLQPEDFATYYCHQYIAKPITFGQGTKVEIKR
notes: as for B1
B4: IDT4 anti-NOV1401 Fab (Fab, V domains shown)
VH: QVQLVESGGGLVKPGGSLRLSCAASGFTFSSAAVHWVRQAPGKGLEWVGRIKSKASGGTTDYAAPVKGRFTISRDDSKNTLYLQMNSLKTEDTAVYYCARDSPSISSYSIPYFSGMDVWGQGTLVTVSS
VL: DIQMTQSPSSLSASVGDRVTITCRASQGIRAWLNWYQQKPGKAPKLLIYAASSLQSGVPSRFSGSGSGTDFTLTISSLQPEDFATYYCHQYITHPPTFGQGTKVEIKR
notes: as for B1
B5: IDT5 anti-NOV1401 Fab (Fab, V domains shown)
VH: QVQLVESGGGLVKPGGSLRLSCAASGFTFSSAAVHWVRQAPGKGLEWVGRIKSKADAGTTDYAAPVKGRFTISRDDSKNTLYLQMNSLKTEDTAVYYCARDSPSISSYSIPYFSGMDVWGQGTLVTVSS
VL: DIQMTQSPSSLSASVGDRVTITCRASQGIRAWLNWYQQKPGKAPKLLIYAASSLQSGVPSRFSGSGSGTDFTLTISSLQPEDFATYYCHQYITHPPTFGQGTKVEIKR
notes: as for B1

Tests used:
[1] = molecular target: T1, anti-FXI/FXIa antibody NOV1401; experiment: solution equilibrium titration (SET), constant Fab with NOV1401 titrated in solution, free Fab captured on biotinylated NOV1401, 1:1 fit; average of n=2
T1 construct: It was amine-coupled to the chip in SPR; In SET it was titrated in solution, and biotinylated NOV1401 served only as the capture reagent on the plate
Target sequence in this assay (VL, as listed by the source): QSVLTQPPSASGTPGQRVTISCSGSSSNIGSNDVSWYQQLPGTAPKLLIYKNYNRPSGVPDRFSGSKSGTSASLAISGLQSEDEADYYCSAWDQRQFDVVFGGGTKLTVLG
Method: (§1) After washing the plate again three times, 30 μl of detection reagent (LumiGLO Peroxidase Chemiluminescent Substrate, KPL#54-61-01) was added to each well. Electrochemiluminescence (ECL) signals were generated and detected immediately with a luminescence imager (SpectraMax M5, Molecular Devices, LLC).
(§2) Average ECL-signals were calculated from duplicate measurements within each assay. Data were baseline adjusted by subtracting the lowest value from all data points and plotted against the corresponding antigen concentration.

[2] = molecular target: T1, anti-FXI/FXIa antibody NOV1401; experiment: cell-based or functional assay
[3] = molecular target: T1, anti-FXI/FXIa antibody NOV1401; experiment: cell-based or functional assay; remark: listed apart in the source
[4] = molecular target: T1, anti-FXI/FXIa antibody NOV1401; experiment: SPR (ProteOn XPR36), NOV1401 amine-coupled on the chip, Fab as analyte 0.125-4 nM, Langmuir 1:1 fit, 25 C; average of n=2
Method: SPR binding experiments were performed on a ProteOn XPR36 instrument (Bio-Rad Laboratories, Inc.) in PBS/T buffer (50 mM phosphate, 150 mM NaCl, pH 7.4, 0.005% v/v Tween-20) at 25° C. […] Unreacted groups were blocked by injecting 1 M ethanolamine.
Blank surfaces were used for background corrections. There was no need to regenerate surfaces since the ProteOn protein interaction array system allows to run up to six binding experiments on an identical surface in parallel.
Data processing and analysis including kon, koff, and KD determination were performed with the ProteOn Manager™ software version 3.1.0.6. Sensorgrams were fitted by applying a Langmuir 1:1 binding model (Rmax set at global) and dissociation constants were calculated from kon and koff.

[5] = molecular target: T1, anti-FXI/FXIa antibody NOV1401; experiment: Solution equilibrium titration (SET): constant Fab, NOV1401 titrated in solution, free Fab captured on biotinylated NOV1401, luminescence (RLU) read, 1:1 fit
Method: as §1, §2

[6] = molecular target: T1, anti-FXI/FXIa antibody NOV1401; experiment: solution equilibrium titration (SET), constant Fab with NOV1401 titrated in solution, free Fab captured on biotinylated NOV1401, 1:1 fit; average of n=3
Method: as §1, §2

| Binder | Kd [1] | percentage reversal of NOV1401 aPTT prolongation, NOV1401/anti NOV1401 ratio 1/1 (n/n) [2] | percentage reversal of NOV1401 aPTT prolongation, NOV1401/anti NOV1401 ratio 1/3 (n/n) [2] | percentage reversal of NOV1401 aPTT prolongation, NOV1401/anti NOV1401 ratio 1/10 (n/n) [2] | percentage reversal of the NOV1401 effect on thrombin generation (TGA), NOV1401/anti NOV1401 ratio 1/1 (n/n) [3] | percentage reversal of the NOV1401 effect on thrombin generation (TGA), NOV1401/anti NOV1401 ratio 1/3 (n/n) [3] | percentage reversal of the NOV1401 effect on thrombin generation (TGA), NOV1401/anti NOV1401 ratio 1/10 (n/n) [3] | Kd [4] | Kd [5] | Kd [6] |
| --- | --- | --- | --- | --- | --- | --- | --- | --- | --- | --- |
| B1 | 0.1 nM | 9% | 35% | 58% | 31% | 47% | 67% | 0.24 nM | – | – |
| B2 | 0.68 nM | 10% | 25% | 46% | 41% | 61% | 72% | 1.92 nM | – | – |
| B3 | 0.96 nM | 16% | 37% | 54% | 50% | 66% | 71% | 0.33 nM | 0.16 nM | – |
| B4 | 0.97 nM | 10% | 27% | 39% | 33% | 53% | 60% | 0.31 nM | – | – |
| B5 | – | 17% | 42% | 56% | 55% | 56% | 72% | 0.35 nM | – | 0.14 nM |

From US20200317816A1 (Novartis, published 2020)
